Results: doi:10.1101/2024.06.21.600134 (bioRxiv, 2024)

Biological target: LPD-3 (C-terminally tagged, from lpd3::mvenus worms) (C. elegans, UniProt A0A0K3AWP8 1-4022)
Assay: affinity purification with mass spectrometry

- binding result: binds
B1: Spigot (natural protein, C. elegans, UniProt Q4W5H0 1-276, looked up)
chain: MRIFVFDGTSVIYVCAVIILILIWVAIIGQRQIWRHRHNVARVRPQVSLSSRISSKKAVLLRETQLDTVMRLRCENQARLTDCISLQFHGEKPYVHRMIAVDEVTLEIDGQLNRIEGAVQRQAGESTYSYLKRIREKVPSIPLNLVHRIAFLQESARFRPEKFDVEQVMELRSLLNQFLRILSAEYDSLSDEPDMAAPRGVIASFYQFGQKIMPNNSGSKRRRNKFGGSDGVRLLMKEREEQLSLLSPLARASADSPAPAAHLRRQSDSHSALLPQ
